From the nanobody polyreactivity screen of Harvey et al. (2022)

Experiment: yeast display, Sf9 membrane polyspecificity reagent, FACS + sequencing; frameworks hold sequencing errors
Procedure, shortened: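 Using colony PCR, genes from sorted yeast display clones were amplified, then sequenced on MiSeq at 2 × 250 and filtered by CDR length. The clones had been stained with 10% biotinylated, detergent-solubilized Sf9 membrane reagent for 1 hour at 4 °C and sorted by FACS into low and high (top ~1%) gates on anti-HA and streptavidin fluorescence. Polyreactivity labels come from the gate of origin.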

Sequence | polyreactivity (PSR sort gate)
QVQLVESGGGLVQAGGSLRLSCAASGSILWYYAMGWDRQAPGKERELVATITSGGSTYYADSVKGRFTISRDNAKNSVYLQMNSLKPEDTAVYYCNADLAVDEYDYWGQGTQVTVSS | low polyreactivity
QVQLVESGGGLVQAGGSLRLSCAASGSTSKSYTMGWYRQAPGKERELVAAISYSGVSTYYADSVKGRFTISRDNAKNTVYLQMNSLKPEDTAVYYCAKRTRKYTVGYYYWGQGTQVTVSS | high polyreactivity
QVQLVESGVGIVQAGGSLRLSCAASGRIFDLYAMVWYRQAPGKEREFVAAISLSGGSTYYADSVKGRFTISRDNAKNTVYLQMNSLKPEDTAVYYCAADHTGKTYDYNYWGQGTQVTVSS | low polyreactivity
QVQLVESGGGLVQAGGSLRLSCAASGFIFGSYTMGWYRQAPGKERELVAAITTGGSTNYADSVKGRFTISRDNAKNTVYLQMNSLKPEDTAVYYCAARTVGFYRYDYWGQGTQVTVSS | low polyreactivity
QVQLVESGGGLVQAGGSLRLSCAASGSTFGYYAMGWYRQAPGNEREFVAAITYGDGNTYYADSVKGRFTISRDNAKNTVYLQMNRLKPEDTAVYYCAKYYWAPTGAHGGYGYWGQGTQVTVSS | low polyreactivity
QVQLVESGGGLVQAGGSLRLSCAASGTTFYRNAMGWYRQAPGKERELVAAISWTGGRTYYADSVKGRFTISRDNAKNTVYLQMNSLKPEDTAVYYCNKGDSASSLDYWGQGTQVTVSS | high polyreactivity
QVQLVESGGGLVQAGGSLRLSCAASGFTFASNDMGWYRPAPGKERELVAAITKGGGRTYYADSVKGRFTISRDNAKNTVYLLMNSLKPEDTAVYYCAASQLIKYDYWGQGTEVTVSS | low polyreactivity
QVQLVESGGGLVQAGGSLRLSCAASGSTFDWYAMGWYRQAPGKERELVATIRYRGGTSYADSVKGRFTISRDNEKNTVYLQMNSLKPEDTAVYYCNAQLYIFDDSYNYWGFDYWGQGTQVTVSS | high polyreactivity
QVQLVESGGGLVQAGGCLRLSCASSGRTFHLYAMGWYRQAPGKERELVAAITWSSGRTYYSDSVKGRFTISRDNAKNTVYVQMKSLKPEDTAVFYCAADVWGGLLPGYDYWGQGTQVTVSS | high polyreactivity
QVQLVESGGGLVQAGGSLRLSCAASGRTIIFNAMGWYRPAPGKERELVAAISSGGGTNYADSVKGRFTISRDNAKNTVYLQMNSLKPEDTAVYYCAADPRDHYSYVYDGYKYDYWGQGTQVTVSS | low polyreactivity
QVQLVESGGGLVQAGGSLRLSCAASGSIFGENAMGWYRQAPGKERELVASITESGVTTYYADSVKGRFTISRDNAKNTVYLQMNSLKPEDTAVYYFWGQGTQVTVSS | low polyreactivity
QVQLVESGGGLVQAGGSLRISCAASGRTFVRYAMGWYRQAPGKERELVAAIDSSGGRTYYADSVKGRFTISRDKAKNTVYLQMNSLKPEDTAVYYCNARRLASYRGYSWGQGTQVTVSS | high polyreactivity
QVQLVESGGGLVQAGGSLRLSCAASGSTFSSYAMGWYRQAPGKERELVAAITSGTRTYYADSVKGRFTISRDNAKNTVYFQMNSLKPEDTAVYYCAAPTSSSGRYHRYYYWVQGTQVTVSS | high polyreactivity
QVQLVESGGGLVQAGGSLRLSCAASGRIFLQYDMGWYRQAPGKERELVAGISSRGGSMYYADSVKGRFTISRDNAKNTVYLQMNSLKPEDTAVYYGAAQTKRIRYVYKHYYWGQGTQVTVSS | high polyreactivity
QVQLVESGGGLVQAGGSLRLSCAASGGTFTSYAMGWYRQAPGKERELVAAISWSGGSTYYADSVKGRFTISRDNAKNTVYLQMKSLKPEDTAVYYCAAVFYRYNAVRYDYWGQGTQVTVSS | high polyreactivity
QLQLVESGGGLVQARGSLRLSCAASGYIFGSYAMGWDRQAPGKERELVAANSKSGGSTYYADSVKGRFTISRDYAKNTVYLQMNSLKPEDTAVYYCAAAGIGGGGWGQGTQVTVSS | low polyreactivity
QVQLVDSGGGLVQAGCSIRITCSATGITFVANTKGWYRQEPVKERELVDTITSSGGSTYYADSVKGRFTISRDNAKNSVYLQMNSLKPEDTAVFYCAASDLRYRGNYVYLPSEYWGQGSQVTVSS | low polyreactivity
QVQLVESGGGLVQAGGRLRFTCAASGAIFHNYDMGGYRQATGKERQLVADISRGGDTNYADSVKGRFTISRDNAKNTVYLEMNSMKPEDTAVYYCNATYWILDSPWWRETFDYWGQGSQVTVSS | low polyreactivity
QVQLEESGGGLVQAGGSLRLSCAASGSTFYGYAMGWNRQAPGKERELVAAITRSGGSTYYADSVKGRFTISRDNAKNTVYLQMNSLKPEDTEVYYCNKYGYKGGVGYDYWGQGTQVTVSS | high polyreactivity
QVQLVESGGGLVQAGGSLRLSCAASGSIFGRYAMGWSRQAPGKERELVAAISRGGSTNYADSVKGRFTISRDNAKNTVYLQMNSLKPEDTAVYYCNRKPYYVSSTRYDYWGQGTQVTVAS | high polyreactivity
QVQLVESGGGLVQAGGSLRLSCAASGSTFSWNTMGWYRQAPGKERELVADIRTSGGGTYYADSVKGRFTISRDNAKNSVYLQMNSLKPEDTAVYYCNGDPKWEMVSWGQGTQVTVSS | low polyreactivity
QVQIVESGGGLVQAGGSLRLSCAASGFTFVINDMGWYRQAPGKERELVADITSGGDTYYADSVKGRFTISRDNAKNTVYLQMNSLKPEDTAVYYCAADIYPDWIYLLYGYWGQGTQVTVSS | low polyreactivity
QLQLVESGGGLVQAGGSLRLSCAASGITFVHNAMGWYRQAPGKEREFVAAITSSGVSTYYADSVKVRFTISRDNAKNTVYLQMNSLKPEDTAVYYCAARLSTRHWFYYWGQGTQVTVSS | high polyreactivity
QVQLVESGGGLVQAGGSLRLSCAASGSTIGRYAMGWYRQAPGKERELVASIRSSGSTYYADSVKGRFTISRDNAKNTVYLQMNSLKPEDTAVYYCNRGVYYGSRYNYWGQGTQVTVSS | high polyreactivity
QVQLVESGGGLVQAGGSLRLSCAPSGSTFEHYTMGWYRQAPGKERELVAAISRRGGRTYYADSVKGRFTISRDNAKNTVYLQMNSLKPEDTAVYYCNAPVYTRKSIDYDYCGQGTQVTVSS | high polyreactivity
QVQLVESGGGLVQAGGSLRLSCAASGTTFGRNAMGWYRQAPGKERELVAAITACGGTTYYADSVKGRFTISRDNAKNTVYLQMNSLKPEDTAVYYCARAGHFSFKYDYWGQGTQVTVSS | low polyreactivity
QVQLVESVGVLVQAGGSLRLSSAASGGILPRYAMGWYRQAPGKERELVAVITRGGSTYYADSVKGRFTISRDNAKNTVYLQMNSLKPEDNAVYYFAKYRYQTGIFYYWGQGTQVTVSS | high polyreactivity
QVQLVESGGGLVQAGGSLRLSCAASGSTFPSYAMGWYRQAPGKERELVAAINSGGGTNYADSVKGRFTISRDTAKNTVYLQMNSLKPEDTAVYYCAKARYDYTKPEGGYWGQGTHVTVSS | low polyreactivity
QVQLVESGGGLVQAGGSLRLSCAASGSTFGYYAMGWYRQAPGKERELVASINWRGDSTYYADSVKGRFTISRDNAKNTVYLQMNSLKPEDTAVYYCNKAYRRRYVQGEYWGQGTQVSVSS | high polyreactivity
QVQLVESGGGLVQAGGSLRLSCAASGSIFHDNAMGWYRQAPGKERELVAAINRGGSTHYADSVKGRFTISRDNAKNTVYLQMNSLKPEDTAVYYCAADGFRPEVGYWGQGTQVTVSS | low polyreactivity
